Laboratory results: patent US20100189657A1, “INTRAMOLECULARLY QUENCHED FLUOROCHROME CONJUGATES AND METHODS OF USE” (THE GENERAL HOSPITAL CORPORATION, priority 2006, published 2010)
Entries after “also recorded” stand apart in the source; their conditions may differ.

Assay: Aqueous solubility of the probes
Format: physicochemical
Settings: aqueous solutions
Procedure: The absorption spectra of equimolar solutions of the probes based on the absorption peak of the free dye, CyTE-777 are shown in FIG. 4. […] The absorption band due to dye aggregation becomes slightly weaker with increasing PEG chain length. […] To determine if the aggregated fluorophores lead to quenching, fluorescence spectra of all the three probes were measured and compared to the fluorescence spectrum of an equimolar solution of CyTE-777 (FIG. 5).
These cysteine proteases are known to be important in biological processes and have similar substrate selectivity. […] The Leu-Arg dipeptide cathepsin S substrate was previously reported to be partially but not completely selective to cathepsin S. The selectivity observed for cathepsin S in the present study is higher than what was expected from the literature reports.

| Compound | aqueous solubility |
| --- | --- |
| CC(C)C[C@H](NC(=O)CCNC(=O)CCOCCOCCOCCOCCNC(=O)CCOCCOCCOCCOCCNC(=O)CCOCCOCCOCCOCCNC(=O)CCSC1=C(/C=C/C2=[N+](CCCCS(=O)(=O)O)c3ccccc3C2(C)C)CCC/C1=C\C=C1\N(CCCCS(=O)(=O)O)c2ccccc2C1(C)C)C(=O)N[C@@H](CCCNC(=N)N)C(=O)NCCC(=O)NCCCC[C@H](NC(=O)CCNC(=O)[C@H](CCCNC(=N)N)NC(=O)[C@H](CC(C)C)NC(=O)CCNC(=O)CCOCCOCCOCCOCCNC(=O)CCOCCOCCOCCOCCNC(=O)CCOCCOCCOCCOCCNC(=O)CCSC1=C(/C=C/C2=[N+](CCCCS(=O)(=O)O)c3ccccc3C2(C)C)CCC/C1=C\C=C1\N(CCCCS(=O)(=O)O)c2ccccc2C1(C)C)C(=O)NCCCC[C@H](NC(=O)[C@H](CCCCNC(=O)CCNC(=O)[C@H](CCCNC(=N)N)NC(=O)[C@H](CC(C)C)NC(=O)CCNC(=O)CCOCCOCCOCCOCCNC(=O)CCOCCOCCOCCOCCNC(=O)CCOCCOCCOCCOCCNC(=O)CCSC1=C(/C=C/C2=[N+](CCCCS(=O)(=O)O)c3ccccc3C2(C)C)CCC/C1=C\C=C1\N(CCCCS(=O)(=O)O)c2ccccc2C1(C)C)NC(=O)CCNC(=O)[C@H](CCCNC(=N)N)NC(=O)[C@H](CC(C)C)NC(=O)CCNC(=O)CCOCCOCCOCCOCCNC(=O)CCOCCOCCOCCOCCNC(=O)CCOCCOCCOCCOCCNC(=O)CCSC1=C(/C=C/C2=[N+](CCCCS(=O)(=O)O)c3ccccc3C2(C)C)CCC/C1=C\C=C1\N(CCCCS(=O)(=O)O)c2ccccc2C1(C)C)C(=O)NCCC(=O)O [CyPEG-3] | satisfactory aqueous solubility |
| CC(C)C[C@H](NC(=O)CCNC(=O)CCOCCOCCOCCOCCNC(=O)CCOCCOCCOCCOCCNC(=O)CCSC1=C(/C=C/C2=[N+](CCCCS(=O)(=O)O)c3ccccc3C2(C)C)CCC/C1=C\C=C1\N(CCCCS(=O)(=O)O)c2ccccc2C1(C)C)C(=O)N[C@@H](CCCNC(=N)N)C(=O)NCCC(=O)NCCCC[C@H](NC(=O)CCNC(=O)[C@H](CCCNC(=N)N)NC(=O)[C@H](CC(C)C)NC(=O)CCNC(=O)CCOCCOCCOCCOCCNC(=O)CCOCCOCCOCCOCCNC(=O)CCSC1=C(/C=C/C2=[N+](CCCCS(=O)(=O)O)c3ccccc3C2(C)C)CCC/C1=C\C=C1\N(CCCCS(=O)(=O)O)c2ccccc2C1(C)C)C(=O)NCCCC[C@H](NC(=O)[C@H](CCCCNC(=O)CCNC(=O)[C@H](CCCNC(=N)N)NC(=O)[C@H](CC(C)C)NC(=O)CCNC(=O)CCOCCOCCOCCOCCNC(=O)CCOCCOCCOCCOCCNC(=O)CCSC1=C(/C=C/C2=[N+](CCCCS(=O)(=O)O)c3ccccc3C2(C)C)CCC/C1=C\C=C1\N(CCCCS(=O)(=O)O)c2ccccc2C1(C)C)NC(=O)CCNC(=O)[C@H](CCCNC(=N)N)NC(=O)[C@H](CC(C)C)NC(=O)CCNC(=O)CCOCCOCCOCCOCCNC(=O)CCOCCOCCOCCOCCNC(=O)CCSC1=C(/C=C/C2=[N+](CCCCS(=O)(=O)O)c3ccccc3C2(C)C)CCC/C1=C\C=C1\N(CCCCS(=O)(=O)O)c2ccccc2C1(C)C)C(=O)NCCC(=O)O [CyPEG-2] | satisfactory aqueous solubility; also recorded: much higher aqueous solubility |
| CC(C)C[C@H](NC(=O)CCNC(=O)CCOCCOCCOCCOCCNC(=O)CCSC1=C(/C=C/C2=[N+](CCCCS(=O)(=O)O)c3ccccc3C2(C)C)CCC/C1=C\C=C1\N(CCCCS(=O)(=O)O)c2ccccc2C1(C)C)C(=O)N[C@@H](CCCNC(=N)N)C(=O)NCCC(=O)NCCCC[C@H](NC(=O)CCNC(=O)[C@H](CCCNC(=N)N)NC(=O)[C@H](CC(C)C)NC(=O)CCNC(=O)CCOCCOCCOCCOCCNC(=O)CCSC1=C(/C=C/C2=[N+](CCCCS(=O)(=O)O)c3ccccc3C2(C)C)CCC/C1=C\C=C1\N(CCCCS(=O)(=O)O)c2ccccc2C1(C)C)C(=O)NCCCC[C@H](NC(=O)[C@H](CCCCNC(=O)CCNC(=O)[C@H](CCCNC(=N)N)NC(=O)[C@H](CC(C)C)NC(=O)CCNC(=O)CCOCCOCCOCCOCCNC(=O)CCSC1=C(/C=C/C2=[N+](CCCCS(=O)(=O)O)c3ccccc3C2(C)C)CCC/C1=C\C=C1\N(CCCCS(=O)(=O)O)c2ccccc2C1(C)C)NC(=O)CCNC(=O)[C@H](CCCNC(=N)N)NC(=O)[C@H](CC(C)C)NC(=O)CCNC(=O)CCOCCOCCOCCOCCNC(=O)CCSC1=C(/C=C/C2=[N+](CCCCS(=O)(=O)O)c3ccccc3C2(C)C)CCC/C1=C\C=C1\N(CCCCS(=O)(=O)O)c2ccccc2C1(C)C)C(=O)NCCC(=O)O [CyPEG-1] | practically insoluble |
